Like-named read-outs stand apart in the source and are kept apart here.
Assays:
[1] = target: T1, human FcγRIIa type R extracellular domain with C-terminal His tag (human, UniProt P12318 34-217); experiment: SPR
T1 sequence (looked up): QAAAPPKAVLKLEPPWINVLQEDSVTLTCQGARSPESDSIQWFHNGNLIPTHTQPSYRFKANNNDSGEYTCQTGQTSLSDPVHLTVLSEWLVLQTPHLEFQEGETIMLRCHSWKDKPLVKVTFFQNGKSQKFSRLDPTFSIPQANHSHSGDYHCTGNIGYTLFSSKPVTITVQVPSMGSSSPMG

[2] = target: human FcγRIIIa type V extracellular domain with C-terminal His tag (human, UniProt P08637 17-208); experiment: SPR
Target sequence in this assay (P08637 17-208 F176V): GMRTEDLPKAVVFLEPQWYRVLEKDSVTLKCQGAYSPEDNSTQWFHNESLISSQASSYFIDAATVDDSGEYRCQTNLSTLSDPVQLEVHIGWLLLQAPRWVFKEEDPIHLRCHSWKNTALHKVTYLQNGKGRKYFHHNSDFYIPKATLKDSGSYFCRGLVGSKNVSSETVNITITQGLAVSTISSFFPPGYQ

[3] = target: T2, human FcγRIIb extracellular domain with C-terminal His tag (human, UniProt P31994 43-217); experiment: ratio of SPR KDs
T2 sequence (looked up): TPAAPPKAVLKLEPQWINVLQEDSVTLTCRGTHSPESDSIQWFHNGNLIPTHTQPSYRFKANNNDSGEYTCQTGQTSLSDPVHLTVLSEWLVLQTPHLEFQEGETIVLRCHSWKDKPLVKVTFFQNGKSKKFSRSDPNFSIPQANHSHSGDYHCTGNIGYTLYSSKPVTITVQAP

[4] = target: human FcγRIIIa type V extracellular domain with C-terminal His tag (human, UniProt P08637 17-208); experiment: SPR; remark: listed apart in the source
Target sequence in this assay (P08637 17-208 F176V): as the sequence (P08637 17-208 F176V) above

[5] = target: T3, human FcγRIIa type H (131His) extracellular domain with C-terminal His tag (human, UniProt P12318 34-217); experiment: SPR
T3 sequence (looked up): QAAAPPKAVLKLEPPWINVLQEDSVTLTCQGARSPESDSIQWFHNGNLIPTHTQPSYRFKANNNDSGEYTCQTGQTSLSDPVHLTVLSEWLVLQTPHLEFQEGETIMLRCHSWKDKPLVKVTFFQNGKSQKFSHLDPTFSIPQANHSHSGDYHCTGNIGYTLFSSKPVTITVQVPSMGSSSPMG

[6] = target: T2, human FcγRIIb extracellular domain with …; experiment: ratio of SPR KDs; remark: listed apart in the source
[7] = target: T4, human FcγRIIa type R (131Arg) extracellular domain with C-terminal His tag (human, UniProt P12318 34-217); experiment: SPR
T4 sequence (looked up): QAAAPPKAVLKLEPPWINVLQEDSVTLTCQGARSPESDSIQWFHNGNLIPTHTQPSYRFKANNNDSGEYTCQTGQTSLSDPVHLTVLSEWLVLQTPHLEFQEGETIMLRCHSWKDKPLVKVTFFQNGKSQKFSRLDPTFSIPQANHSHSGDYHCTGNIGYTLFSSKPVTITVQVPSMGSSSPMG

[8] = target: T5, human FcγRIIa type H extracellular domain with C-terminal His tag (human, UniProt P12318 34-217); experiment: SPR
T5 sequence (looked up): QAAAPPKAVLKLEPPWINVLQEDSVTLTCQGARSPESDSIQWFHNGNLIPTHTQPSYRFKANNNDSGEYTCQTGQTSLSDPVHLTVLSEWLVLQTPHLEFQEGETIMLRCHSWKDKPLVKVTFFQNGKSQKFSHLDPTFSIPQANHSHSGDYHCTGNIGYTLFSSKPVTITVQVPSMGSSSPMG

[9] = target: T3, human FcγRIIa type H (131His) …; experiment: SPR; remark: listed apart in the source

B1: IL6R-BP183/IL6R-L (antibody, human IgG1, kappa)
heavy: QVQLQESGPGLVKPSETLSLTCAVSGHSISHDHAWSWVRQPPGEGLEWIGFISYSGITNYNPSLQGRVTISRDNSKNTLYLQMNSLRAEDTAVYYCARSLARTTAMDYWGEGTLVTVSSASTKGPSVFPLAPSSKSTSGGTAALGCLVKDYFPEPVTVSWNSGALTSGVHTFPAVLQSSGLYSLSSVVTVPSSSLGTQTYICNVNHKPSNTKVDKKVEPKSCDKTHTCPPCPAPDYLGGDSVFLFPPKPKDTLMISRTPEVTCVVVDVSHEDGEVKFNWYVDGVEVHNAKTKPREEQYNSTYRVVSVLTVLHQDWLNGKEYKCKVSNAALPKPIEKTISKAKGQPREPQVYTLPPSRDELTKNQVSLTCLVKGFYPSDIAVEWESNGQPENNYKTTPPVLDSDGSFFLYSKLTVDKSRWQQGNVFSCSVMHEALHNHYTQESLSLSP
light: not shown
With B1 the Kd [1] was 2500 nM.

B2: IL6R-BP184/IL6R-L (antibody, human IgG1, kappa)
heavy: QVQLQESGPGLVKPSETLSLTCAVSGHSISHDHAWSWVRQPPGEGLEWIGFISYSGITNYNPSLQGRVTISRDNSKNTLYLQMNSLRAEDTAVYYCARSLARTTAMDYWGEGTLVTVSSASTKGPSVFPLAPSSKSTSGGTAALGCLVKDYFPEPVTVSWNSGALTSGVHTFPAVLQSSGLYSLSSVVTVPSSSLGTQTYICNVNHKPSNTKVDKKVEPKSCDKTHTCPPCPAPDLLGGDSVFLFPPKPKDTLMISRTPEVTCVVVDVSHEDGEVKFNWYVDGVEVHNAKTKPREEQYNSTYRVVSVLTVLHQDWLNGKEYKCKVSNKALPKPIEKTISKAKGQPREPQVYTLPPSRDELTKNQVSLTCLVKGFYPSDIAVEWESNGQPENNYKTTPPVLDSDGSFFLYSKLTVDKSRWQQGNVFSCSVMHEALHNHYTQESLSLSP
light: not shown
With B2 the Kd [2] was 68 nM.

B3: IL6R-BP492/IL6R-L (antibody, human IgG1, kappa)
heavy: QVQLQESGPGLVKPSETLSLTCAVSGHSISHDHAWSWVRQPPGEGLEWIGFISYSGITNYNPSLQGRVTISRDNSKNTLYLQMNSLRAEDTAVYYCARSLARTTAMDYWGEGTLVTVSSASTKGPSVFPLAPSSKSTSGGTAALGCLVKDYFPEPVTVSWNSGALTSGVHTFPAVLQSSGLYSLSSVVTVPSSSLGTQTYICNVNHKPSNTKVDKKVEPKSCDKTHTCPPCPAPELLGGDSVFLFPPKPKDTLMISRTPEVTCVVIDVAEEDGEVKFNWYVDGVEVHNAKTKPREEQYNSTYRVVSVLTVLHQDWLNGKEYKCKVSNKALPAPIEKTISKAKGQPREPQVYTLPPSRDELTKNQVSLTCLVKGFYPSDIAVEWESNGQPENNYKTTPPVLDSDGSFFLYSKLTVDKSRWQQGNVFSCSVMHEALHNHYTQESLSLSP
light: not shown
B3 was tested, and the “KD (IIaR)/KD (IIb)” value [3] was 30.3, the Kd [4] was 30000 nM and the Kd [5] was 15000 nM. For the same binder, the “KD (IIaH)/KD (IIb)” value [6] was 670.

B4: IL6R-BP213/IL6R-L (antibody, human IgG1, kappa)
heavy: QVQLQESGPGLVKPSETLSLTCAVSGHSISHDHAWSWVRQPPGEGLEWIGFISYSGITNYNPSLQGRVTISRDNSKNTLYLQMNSLRAEDTAVYYCARSLARTTAMDYWGEGTLVTVSSASTKGPSVFPLAPSSKSTSGGTAALGCLVKDYFPEPVTVSWNSGALTSGVHTFPAVLQSSGLYSLSSVVTVPSSSLGTQTYICNVNHKPSNTKVDKKVEPKSCDKTHTCPPCPAPDLLGGDSVFLFPPKPKDTLMISRTPEVTCVVVDVSDEDGEVKFNWYVDGVEVHNAKTKPREEQYNSTYRVVSVLTVLHQDWLNGKEYKCKVSNKALPRPIEKTISKAKGQPREPQVYTLPPSRDELTKNQVSLTCLVKGFYPSDIAVEWESNGQPENNYKTTPPVLDSDGSFFLYSKLTVDKSRWQQGNVFSCSVMHEALHNHYTQESLSLSP
light: not shown
B4 gave a Kd [2] of 65000 nM.

B5: IL6R-BP483/IL6R-L (antibody, human IgG1, kappa)
heavy: QVQLQESGPGLVKPSETLSLTCAVSGHSISHDHAWSWVRQPPGEGLEWIGFISYSGITNYNPSLQGRVTISRDNSKNTLYLQMNSLRAEDTAVYYCARSLARTTAMDYWGEGTLVTVSSASTKGPSVFPLAPSSKSTSGGTAALGCLVKDYFPEPVTVSWNSGALTSGVHTFPAVLQSSGLYSLSSVVTVPSSSLGTQTYICNVNHKPSNTKVDKKVEPKSCDKTHTCPPCPAPDLLGDDSVFLFPPKPKDTLMISRTPEVTCVVVDLAEEDGEVKFNWYVDGVEVHNAKTKPREEQYNSTYRVVSVLTVLHQDWLNGKEYKCKVSNKALPAPIEKTISKAKGQPREPQVYTLPPSRDELTKNQVSLTCLVKGFYPSDIAVEWESNGQPENNYKTTPPVLDSDGSFFLYSKLTVDKSRWQQGNVFSCSVMHEALHNHYTQESLSLSP
light: not shown
With B5 the “KD (IIaR)/KD (IIb)” value [3] was 16, the “KD (IIaH)/KD (IIb)” value [6] was 230 and the Kd [7] was 13 nM.

B6: IL6R-BP186/IL6R-L (antibody, human IgG1, kappa)
heavy: QVQLQESGPGLVKPSETLSLTCAVSGHSISHDHAWSWVRQPPGEGLEWIGFISYSGITNYNPSLQGRVTISRDNSKNTLYLQMNSLRAEDTAVYYCARSLARTTAMDYWGEGTLVTVSSASTKGPSVFPLAPSSKSTSGGTAALGCLVKDYFPEPVTVSWNSGALTSGVHTFPAVLQSSGLYSLSSVVTVPSSSLGTQTYICNVNHKPSNTKVDKKVEPKSCDKTHTCPPCPAPDYLGDDSVFLFPPKPKDTLMISRTPEVTCVVVDVSHEDGEVKFNWYVDGVEVHNAKTKPREEQDNSTYRVVSVLTVLHQDWLNGKEYKCKVSNAALPKPIEKTISKAKGQPREPQVYTLPPSRDELTKNQVSLTCLVKGFYPSDIAVEWESNGQPENNYKTTPPVLDSDGSFFLYSKLTVDKSRWQQGNVFSCSVMHEALHNHYTQESLSLSP
light: not shown
In the case of B6, the Kd [1] is reported as 950 nM.

B7: IL6R-BP204/IL6R-L (antibody, human IgG1, kappa)
heavy: QVQLQESGPGLVKPSETLSLTCAVSGHSISHDHAWSWVRQPPGEGLEWIGFISYSGITNYNPSLQGRVTISRDNSKNTLYLQMNSLRAEDTAVYYCARSLARTTAMDYWGEGTLVTVSSASTKGPSVFPLAPSSKSTSGGTAALGCLVKDYFPEPVTVSWNSGALTSGVHTFPAVLQSSGLYSLSSVVTVPSSSLGTQTYICNVNHKPSNTKVDKKVEPKSCDKTHTCPPCPAPDLLGGDSVFLFPPKPKDTLMISRTPEVTCVVVDVSHEDGEVKFNWYVDGVEVHNAKTKPREEQYNSTYRVVSVLTVLHQDWLNGKEYKCKVSNAALPRPIEKTISKAKGQPREPQVYTLPPSRDELTKNQVSLTCLVKGFYPSDIAVEWESNGQPENNYKTTPPVLDSDGSFFLYSKLTVDKSRWQQGNVFSCSVMHEALHNHYTQESLSLSP
light: not shown
Work on B7 yielded a Kd [8] of 2100 nM.

B8: IL6R-BP480/IL6R-L (antibody, human IgG1, kappa)
heavy: QVQLQESGPGLVKPSETLSLTCAVSGHSISHDHAWSWVRQPPGEGLEWIGFISYSGITNYNPSLQGRVTISRDNSKNTLYLQMNSLRAEDTAVYYCARSLARTTAMDYWGEGTLVTVSSASTKGPSVFPLAPSSKSTSGGTAALGCLVKDYFPEPVTVSWNSGALTSGVHTFPAVLQSSGLYSLSSVVTVPSSSLGTQTYICNVNHKPSNTKVDKKVEPKSCDKTHTCPPCPAPDLLGDDSVFLFPPKPKDTLMISRTPEVTCVVVDLSEDDGEVKFNWYVDGVEVHNAKTKPREEQYNSTYRVVSVLTVLHQDWLNGKEYKCKVSNKALPAPIEKTISKAKGQPREPQVYTLPPSRDELTKNQVSLTCLVKGFYPSDIAVEWESNGQPENNYKTTPPVLDSDGSFFLYSKLTVDKSRWQQGNVFSCSVMHEALHNHYTQESLSLSP
light: not shown
Work on B8 yielded a Kd [4] of 40000 nM.

B9: IL6R-BP487/IL6R-L (antibody, human IgG1, kappa)
heavy: QVQLQESGPGLVKPSETLSLTCAVSGHSISHDHAWSWVRQPPGEGLEWIGFISYSGITNYNPSLQGRVTISRDNSKNTLYLQMNSLRAEDTAVYYCARSLARTTAMDYWGEGTLVTVSSASTKGPSVFPLAPSSKSTSGGTAALGCLVKDYFPEPVTVSWNSGALTSGVHTFPAVLQSSGLYSLSSVVTVPSSSLGTQTYICNVNHKPSNTKVDKKVEPKSCDKTHTCPPCPAPDLLGDDSVFLFPPKPKDTLMISRTPEVTCVVIDVAEEDGEVKFNWYVDGVEVHNAKTKPREEQYNSTYRVVSVLTVLHQDWLNGKEYKCKVSNKALPRPIEKTISKAKGQPREPQVYTLPPSRDELTKNQVSLTCLVKGFYPSDIAVEWESNGQPENNYKTTPMVLDSDGSFFLYSKLTVDKSRWQQGNVFSCSVMHEALHNHYTQESLSLSP
light: not shown
With B9 the “KD (IIaR)/KD (IIb)” value [3] was 33.3 and the Kd [9] was 40 nM.

B10: IL6R-BP209/IL6R-L (antibody, human IgG1, kappa)
heavy: QVQLQESGPGLVKPSETLSLTCAVSGHSISHDHAWSWVRQPPGEGLEWIGFISYSGITNYNPSLQGRVTISRDNSKNTLYLQMNSLRAEDTAVYYCARSLARTTAMDYWGEGTLVTVSSASTKGPSVFPLAPSSKSTSGGTAALGCLVKDYFPEPVTVSWNSGALTSGVHTFPAVLQSSGLYSLSSVVTVPSSSLGTQTYICNVNHKPSNTKVDKKVEPKSCDKTHTCPPCPAPELLGDDSVFLFPPKPKDTLMISRTPEVTCVVVDVSDEDGEVKFNWYVDGVEVHNAKTKPREEQYNSTYRVVSVLTVLHQDWLNGKEYKCKVSNAALPRPIEKTISKAKGQPREPQVYTLPPSRDELTKNQVSLTCLVKGFYPSDIAVEWESNGQPENNYKTTPPVLDSDGSFFLYSKLTVDKSRWQQGNVFSCSVMHEALHNHYTQESLSLSP
light: not shown
In the case of B10, the Kd [8] is reported as 1000 nM.
